# Patent US20260167699A1 (Chugai, published 2026)
# Where a chain is given by its changes, count along the chain named.
# T1: FcγRIIa(H) (human, UniProt P12318 34-217)
# T1 construct: extracellular domain; also called 2aH
# T1 sequence: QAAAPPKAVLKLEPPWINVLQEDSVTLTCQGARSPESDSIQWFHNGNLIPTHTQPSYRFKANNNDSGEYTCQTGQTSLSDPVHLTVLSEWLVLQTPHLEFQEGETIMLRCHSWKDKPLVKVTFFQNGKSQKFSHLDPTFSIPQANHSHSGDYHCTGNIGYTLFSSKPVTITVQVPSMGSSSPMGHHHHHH
# T2: FcγRIIa(R) (human, UniProt P12318 34-217)
# T2 construct: extracellular domain; also called 2aR
# T2 sequence: T1 sequence with H134R
# T3: FcγRIIb (human, UniProt P31994 43-217)
# T3 construct: extracellular domain; also called 2b
# T3 sequence: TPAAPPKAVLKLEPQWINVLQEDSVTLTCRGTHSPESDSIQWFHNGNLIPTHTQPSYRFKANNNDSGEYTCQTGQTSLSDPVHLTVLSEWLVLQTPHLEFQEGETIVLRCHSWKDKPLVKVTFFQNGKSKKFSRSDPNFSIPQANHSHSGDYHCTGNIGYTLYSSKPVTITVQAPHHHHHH
# B1: GpH7-A5/GpH7-B3 variant L328_02A/GpL16-k0 (antibody, human IgG1, kappa)
# heavy 1: not shown
# heavy 2: not shown
# light: DIVMTQSPLSLPVTPGEPASISCQASESLVHSNRNTYLHWYLQKPGQSPQLLIYKVSNRFSGVPDRFSGSGSGTDFTLKISRVEAEDVGVYYCSQNTHVPPTFGQGTKVEIERTVAAPSVFIFPPSDEQLKSGTASVVCLLNNFYPREAKVQWKVDNALQSGNSQESVTEQDSKDSTYSLSSTLTLSKADYEKHKVYACEVTHQGLSSPVTKSFNRGEC
# notes: He Ab: heterodimerized IgG1, one H chain mutated
# B2: GpH7-A5/GpH7-B3 variant P329_09D/GpL16-k0 (antibody, human IgG1, kappa)
# heavy 1: not shown
# heavy 2: not shown
# light: B1 light
# notes: as for B1
# B3: GpH7-A5/GpH7-B3 variant S324_06M/GpL16-k0 (antibody, human IgG1, kappa)
# heavy 1: not shown
# heavy 2: not shown
# light: B1 light
# notes: as for B1
# B4: GpH7-A5/GpH7-B3 variant S298_12R/GpL16-k0 (antibody, human IgG1, kappa)
# heavy 1: not shown
# heavy 2: not shown
# light: B1 light
# notes: as for B1
# B5: GpH7-A5/GpH7-B3 variant S298_06M/GpL16-k0 (antibody, human IgG1, kappa)
# heavy 1: not shown
# heavy 2: not shown
# light: B1 light
# notes: as for B1
# B6: GpH7-A5/GpH7-B3 variant S298_02A/GpL16-k0 (antibody, human IgG1, kappa)
# heavy 1: not shown
# heavy 2: not shown
# light: B1 light
# notes: as for B1
# B7: GpH7-A5/GpH7-B3 variant S298_01G/GpL16-k0 (antibody, human IgG1, kappa)
# heavy 1: not shown
# heavy 2: not shown
# light: B1 light
# notes: as for B1
# B8: GpH7-A5/GpH7-B3 variant L328_16H/GpL16-k0 (antibody, human IgG1, kappa)
# heavy 1: not shown
# heavy 2: not shown
# light: B1 light
# notes: as for B1
# B9: GpH7-A5/GpH7-B3 variant N325_13S/GpL16-k0 (antibody, human IgG1, kappa)
# heavy 1: not shown
# heavy 2: not shown
# light: B1 light
# notes: as for B1
# B10: GpH7-A5/GpH7-B3 variant S298_04F/GpL16-k0 (antibody, human IgG1, kappa)
# heavy 1: not shown
# heavy 2: not shown
# light: B1 light
# notes: as for B1
# B11: GpH7-A5/GpH7-B3 variant S298_11K/GpL16-k0 (antibody, human IgG1, kappa)
# heavy 1: not shown
# heavy 2: not shown
# light: B1 light
# notes: as for B1
# B12: GpH7-A5/GpH7-B3 variant L328_18N/GpL16-k0 (antibody, human IgG1, kappa)
# heavy 1: not shown
# heavy 2: not shown
# light: B1 light
# notes: as for B1
# B13: GpH7-A5/GpH7-B3 variant L328_19Q/GpL16-k0 (antibody, human IgG1, kappa)
# heavy 1: not shown
# heavy 2: not shown
# light: B1 light
# notes: as for B1
# B14: GpH7-A5/GpH7-B3 variant L328_04F/GpL16-k0 (antibody, human IgG1, kappa)
# heavy 1: not shown
# heavy 2: not shown
# light: B1 light
# notes: as for B1
# B15: GpH7-A5/GpH7-B3 variant S298_19Q/GpL16-k0 (antibody, human IgG1, kappa)
# heavy 1: not shown
# heavy 2: not shown
# light: B1 light
# notes: as for B1
# B16: GpH7-A5/GpH7-B3 variant P329_10E/GpL16-k0 (antibody, human IgG1, kappa)
# heavy 1: not shown
# heavy 2: not shown
# light: B1 light
# notes: as for B1
# B17: GpH7-A5/GpH7-B3 variant S324_07I/GpL16-k0 (antibody, human IgG1, kappa)
# heavy 1: not shown
# heavy 2: not shown
# light: B1 light
# notes: as for B1
# B18: GpH7-A5/GpH7-B3 variant S298_03V/GpL16-k0 (antibody, human IgG1, kappa)
# heavy 1: not shown
# heavy 2: not shown
# light: B1 light
# notes: as for B1
# B19: GpH7-A5/GpH7-B3 variant Q295_01G/GpL16-k0 (antibody, human IgG1, kappa)
# heavy 1: not shown
# heavy 2: not shown
# light: B1 light
# notes: as for B1
# B20: GpH7-A5/GpH7-B3 variant S298_07I/GpL16-k0 (antibody, human IgG1, kappa)
# heavy 1: not shown
# heavy 2: not shown
# light: B1 light
# notes: as for B1
# B21: GpH7-A5/GpH7-B3 variant L328_14T/GpL16-k0 (antibody, human IgG1, kappa)
# heavy 1: not shown
# heavy 2: not shown
# light: B1 light
# notes: as for B1
# B22: GpH7-A5/GpH7-B3 variant S298_15Y/GpL16-k0 (antibody, human IgG1, kappa)
# heavy 1: not shown
# heavy 2: not shown
# light: B1 light
# notes: as for B1
# B23: GpH7-A5/GpH7-B3 variant S298_08L/GpL16-k0 (antibody, human IgG1, kappa)
# heavy 1: not shown
# heavy 2: not shown
# light: B1 light
# notes: as for B1
# B24: GpH7-A5/GpH7-B3 variant L328_06M/GpL16-k0 (antibody, human IgG1, kappa)
# heavy 1: not shown
# heavy 2: not shown
# light: B1 light
# notes: as for B1
# B25: GpH7-A5/GpH7-B3 variant L328_15Y/GpL16-k0 (antibody, human IgG1, kappa)
# heavy 1: not shown
# heavy 2: not shown
# light: B1 light
# notes: as for B1
# B26: GpH7-A5/GpH7-B3 variant S324_02A/GpL16-k0 (antibody, human IgG1, kappa)
# heavy 1: not shown
# heavy 2: not shown
# light: B1 light
# notes: as for B1
# B27: GpH7-A5/GpH7-B3 variant S298_16H/GpL16-k0 (antibody, human IgG1, kappa)
# heavy 1: not shown
# heavy 2: not shown
# light: B1 light
# notes: as for B1
# B28: GpH7-A5/GpH7-B3 variant S324_04F/GpL16-k0 (antibody, human IgG1, kappa)
# heavy 1: not shown
# heavy 2: not shown
# light: B1 light
# notes: as for B1
# B29: GpH7-A5/GpH7-B3 variant S298_14T/GpL16-k0 (antibody, human IgG1, kappa)
# heavy 1: not shown
# heavy 2: not shown
# light: B1 light
# notes: as for B1
# B30: GpH7-A5/GpH7-B3 variant N325_09D/GpL16-k0 (antibody, human IgG1, kappa)
# heavy 1: not shown
# heavy 2: not shown
# light: B1 light
# notes: as for B1
# B31: GpH7-A5/GpH7-B3 variant S324_01G/GpL16-k0 (antibody, human IgG1, kappa)
# heavy 1: not shown
# heavy 2: not shown
# light: B1 light
# notes: as for B1
# B32: GpH7-A5/GpH7-B3 variant L328_03V/GpL16-k0 (antibody, human IgG1, kappa)
# heavy 1: not shown
# heavy 2: not shown
# light: B1 light
# notes: as for B1
# B33: GpH7-A5/GpH7-B3 variant S324_03V/GpL16-k0 (antibody, human IgG1, kappa)
# heavy 1: not shown
# heavy 2: not shown
# light: B1 light
# notes: as for B1
# B34: GpH7-A5/GpH7-B3 variant L328_07I/GpL16-k0 (antibody, human IgG1, kappa)
# heavy 1: not shown
# heavy 2: not shown
# light: B1 light
# notes: as for B1
# B35: GpH7-A5/GpH7-B3 variant L328_13S/GpL16-k0 (antibody, human IgG1, kappa)
# heavy 1: not shown
# heavy 2: not shown
# light: B1 light
# notes: as for B1
# Molecular target: T1, FcγRIIa(H)
# Assay: SPR, relative to GpH7-A5/GpH7-B3/GpL16-k0 =100
row,He/Con 2aH [%],Binder
1,154,B1
2,57.1,B2
3,122,B3
4,67.4,B4
5,95.8,B5
6,74.3,B6
7,71.4,B7
8,84.5,B8
9,83,B9
10,75.5,B10
11,63.9,B11
12,80.6,B12
13,103,B13
14,84.9,B14
15,88.9,B15
16,57.6,B16
17,107,B17
18,83.2,B18

row,He/Con 2aH [%],Binder
1,62.5,B19
2,84.9,B20
3,138,B21
4,71.2,B22
5,83,B23
6,122,B24
7,106,B25
8,114,B26
9,80.2,B27
10,106,B28
11,96.2,B29
12,55.3,B30
13,110,B31
14,116,B32
15,108,B33
16,111,B34
17,146,B35

# Molecular target: T4, FcγRIa (human, UniProt P12314 16-292)
# T4 construct: extracellular domain; also called 1a
# T4 sequence (P12314 other isoform, or with tags, fused parts or gaps): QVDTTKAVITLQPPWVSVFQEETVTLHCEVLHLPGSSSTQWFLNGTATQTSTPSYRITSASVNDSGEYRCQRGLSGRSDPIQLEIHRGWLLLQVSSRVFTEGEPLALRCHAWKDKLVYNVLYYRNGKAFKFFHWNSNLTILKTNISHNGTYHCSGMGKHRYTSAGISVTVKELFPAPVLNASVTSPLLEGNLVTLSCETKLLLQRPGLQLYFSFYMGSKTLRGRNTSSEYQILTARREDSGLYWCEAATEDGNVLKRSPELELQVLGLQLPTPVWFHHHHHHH
# Assay: SPR, relative to GpH7-A5/GpH7-B3/GpL16-k0 =100
row,He/Con 1a [%],Binder
1,101,B1
2,80.1,B2
3,104,B3
4,106,B4
5,111,B5
6,103,B6
7,100,B7
8,98.5,B8
9,102,B9
10,106,B10
11,106,B11
12,101,B12
13,104,B13
14,100,B14
15,106,B15
16,81.4,B16
17,96.2,B17
18,106,B18

row,He/Con 1a [%],Binder
1,96.1,B19
2,104,B20
3,103,B21
4,104,B22
5,104,B23
6,101,B24
7,104,B25
8,96.9,B26
9,105,B27
10,103,B28
11,104,B29
12,105,B30
13,93.2,B31
14,103,B32
15,97.7,B33
16,102,B34
17,101,B35

# Molecular target: T2, FcγRIIa(R)
# Assay: SPR, relative to GpH7-A5/GpH7-B3/GpL16-k0 =100
row,He/Con 2aR [%],Binder
1,150,B1
2,76,B2
3,118,B3
4,81.6,B4
5,104,B5
6,87.2,B6
7,94.5,B7
8,106,B8
9,137,B9
10,80.4,B10
11,91,B11
12,76.4,B12
13,115,B13
14,177,B14
15,90.9,B15
16,72.7,B16
17,109,B17
18,82.5,B18

row,He/Con 2aR [%],Binder
1,60.3,B19
2,86.2,B20
3,153,B21
4,75.7,B22
5,100,B23
6,148,B24
7,174,B25
8,99.9,B26
9,84.7,B27
10,99.6,B28
11,94.2,B29
12,111,B30
13,94.4,B31
14,150,B32
15,113,B33
16,160,B34
17,150,B35

# Molecular target: T3, FcγRIIb
# Assay: SPR, relative to GpH7-A5/GpH7-B3/GpL16-k0 =100
row,He/Con 2b [%],Binder
1,180,B1
2,60.4,B2
3,126,B3
4,58.6,B4
5,103,B5
6,74.4,B6
7,81.2,B7
8,100,B8
9,198,B9
10,66.3,B10
11,62.2,B11
12,101,B12
13,131,B13
14,273,B14
15,74.3,B15
16,59.5,B16
17,125,B17
18,65.4,B18

row,He/Con 2b [%],Binder
1,51.6,B19
2,71.5,B20
3,176,B21
4,62.2,B22
5,110,B23
6,176,B24
7,240,B25
8,102,B26
9,64.4,B27
10,99.9,B28
11,79,B29
12,139,B30
13,106,B31
14,157,B32
15,128,B33
16,200,B34
17,186,B35
